Source: article PMC9907207 (2023)

Target: SARS-CoV-2 RBD (residues 319-541), ancestral strain (SARS-CoV-2, UniProt P0DTC2 319-541)
Test: BLI

B1: GAR03, human IgG1 monoclonal antibody (antibody, V domains shown)
VH: QVQLVQSGAEVKKPGASVKVSCKASGYTFSSYDINWVRQAPGQGLEWMGWMSPNSGNTGYAQKFQGRVTMTRSTSMSTAYMELSSLRSEDTAVYFCARMSSSLTNYLDYWGQGTLVTVSS
VL: SYVLTQPPSVAVAPGQTARIRCGENDIGSKNVHWYQQKSGQAPVLVVYDDSDRPSGIPERFSGSNSGNTATLTISRVEAGDEADYYCQVWDSTGDHPDVVFGGGTKLTVL
modifications: biotin (EZ-Link NHS-PEG4-Biotin, 10:1) where loaded on the sensor
Binder B1 has a Kd of 310 pM.

B2: GAR12, human IgG1 monoclonal antibody (antibody, V domains shown)
VH: EVQLVQSGGGLVQPGGSLRLSCAASGFTFSSYAMSWVRQAPGKGLEWVLSISGSGGSTYYADSVKGRFTISIDNSKKTVYLQMNSLRAEDTAVYYCAKSGEQQLVQAEYFHHWGQGTLVTVSS
VL: DIQMTQSPSTLSASVGDRVTITCRASQSIGRWLAWYQQKPGKAPKLLIYDASSLESGVPSRFSGSGFGTEFTLTISSLQPDDFATYYCQQCDSLLTFGGGTKLEIK
modifications: biotin (EZ-Link NHS-PEG4-Biotin, 10:1) where loaded on the sensor
In the case of B2, the Kd is reported as 200 pM.
